Data as given in the supplement of paper PMC10219994.
± gives the standard deviation of the averaged measurements.

B1: library; a variant is named by its letters at N, in order (parent)
chain: GAGACCGCAACTGAAAAGTTGTGGNNNNNATAGTGAGTCGCTGCCTGCAAAGACACAACT

Variants of: B1
Assay: ligation selection enrichment (abundance after / before one-round selection) (fold); higher = more template-directed ligation activity
Conditions: with T7Psub CACGGAUGCUAAUACGACUCACUAUA; MgCl2 25 mM; 42 °C; 4 h; pH 8.5
Method: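 Lib-N5 ligase ribozyme library: five randomized core nucleotides (including the GGA motif of N8-1) within the fixed N8-1 ribozyme flanks, transcribed by T7 RNA polymerase with a 5'-triphosphate. The library (0.75 uM) was reacted with substrate T7Psub (6 uM) in 50 mM EPPS pH 8.5 with 25 mM MgCl2 at 42 C for 4 h. Ligated products were PAGE-purified, reverse transcribed and MiSeq sequenced; enrichment = abundance after selection / abundance before selection, with two independent replicates. The full transcript is built from the printed template flanks.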
With GAGACCGCAACTGAAAAGTTGTGGAAGACATAGTGAGTCGCTGCCTGCAAAGACACAACT [AAGAC] the ligation selection enrichment was 0.661 ± 0.019.
In the case of GAGACCGCAACTGAAAAGTTGTGGCAGACATAGTGAGTCGCTGCCTGCAAAGACACAACT [CAGAC], the ligation selection enrichment is reported as 0.374 ± 0.044.
GAGACCGCAACTGAAAAGTTGTGGTAGAGATAGTGAGTCGCTGCCTGCAAAGACACAACT [TAGAG] was tested, and the ligation selection enrichment was 0.755 ± 0.058.
Variant GAGACCGCAACTGAAAAGTTGTGGGAGAGATAGTGAGTCGCTGCCTGCAAAGACACAACT [GAGAG] has a ligation selection enrichment of 0.663 ± 0.061.
Variant GAGACCGCAACTGAAAAGTTGTGGAAGAGATAGTGAGTCGCTGCCTGCAAAGACACAACT [AAGAG] has a ligation selection enrichment of 0.632 ± 0.085.
GAGACCGCAACTGAAAAGTTGTGGCAGAGATAGTGAGTCGCTGCCTGCAAAGACACAACT [CAGAG] was tested, and the ligation selection enrichment was 0.399 ± 0.09.
With GAGACCGCAACTGAAAAGTTGTGGAAGATATAGTGAGTCGCTGCCTGCAAAGACACAACT [AAGAT] the ligation selection enrichment was 16.6 ± 5.
With GAGACCGCAACTGAAAAGTTGTGGTAGATATAGTGAGTCGCTGCCTGCAAAGACACAACT [TAGAT] the ligation selection enrichment was 15.6 ± 3.6.
GAGACCGCAACTGAAAAGTTGTGGGAGATATAGTGAGTCGCTGCCTGCAAAGACACAACT [GAGAT] gave a ligation selection enrichment of 11.7 ± 2.6.
Work on GAGACCGCAACTGAAAAGTTGTGGCAGATATAGTGAGTCGCTGCCTGCAAAGACACAACT [CAGAT] yielded a ligation selection enrichment of 9.36 ± 2.
Variant GAGACCGCAACTGAAAAGTTGTGGGAGCAATAGTGAGTCGCTGCCTGCAAAGACACAACT [GAGCA] has a ligation selection enrichment of 0.241 ± 0.082.
GAGACCGCAACTGAAAAGTTGTGGAAGCAATAGTGAGTCGCTGCCTGCAAAGACACAACT [AAGCA] showed a ligation selection enrichment of 0.236 ± 0.065.
GAGACCGCAACTGAAAAGTTGTGGTAGCAATAGTGAGTCGCTGCCTGCAAAGACACAACT [TAGCA] gave a ligation selection enrichment of 0.21 ± 0.016.
GAGACCGCAACTGAAAAGTTGTGGCAGCAATAGTGAGTCGCTGCCTGCAAAGACACAACT [CAGCA] showed a ligation selection enrichment of 0.206 ± 0.024.
For GAGACCGCAACTGAAAAGTTGTGGAAGCCATAGTGAGTCGCTGCCTGCAAAGACACAACT [AAGCC], the ligation selection enrichment was 0.188 ± 0.021.
GAGACCGCAACTGAAAAGTTGTGGGAGCCATAGTGAGTCGCTGCCTGCAAAGACACAACT [GAGCC] gave a ligation selection enrichment of 0.172 ± 0.0044.
With GAGACCGCAACTGAAAAGTTGTGGTAGCCATAGTGAGTCGCTGCCTGCAAAGACACAACT [TAGCC] the ligation selection enrichment was 0.16 ± 0.02.
With GAGACCGCAACTGAAAAGTTGTGGCAGCCATAGTGAGTCGCTGCCTGCAAAGACACAACT [CAGCC] the ligation selection enrichment was 0.14 ± 0.0077.
GAGACCGCAACTGAAAAGTTGTGGAAGCGATAGTGAGTCGCTGCCTGCAAAGACACAACT [AAGCG] gave a ligation selection enrichment of 1.09 ± 0.27.
For GAGACCGCAACTGAAAAGTTGTGGGAGCGATAGTGAGTCGCTGCCTGCAAAGACACAACT [GAGCG], the ligation selection enrichment was 0.68 ± 0.023.
With GAGACCGCAACTGAAAAGTTGTGGCAGCGATAGTGAGTCGCTGCCTGCAAAGACACAACT [CAGCG] the ligation selection enrichment was 0.535 ± 0.21.
Variant GAGACCGCAACTGAAAAGTTGTGGTAGCGATAGTGAGTCGCTGCCTGCAAAGACACAACT [TAGCG] has a ligation selection enrichment of 0.52 ± 0.11.
For GAGACCGCAACTGAAAAGTTGTGGGAGCTATAGTGAGTCGCTGCCTGCAAAGACACAACT [GAGCT], the ligation selection enrichment was 0.597 ± 0.27.
GAGACCGCAACTGAAAAGTTGTGGAAGCTATAGTGAGTCGCTGCCTGCAAAGACACAACT [AAGCT] was tested, and the ligation selection enrichment was 0.56 ± 0.29.
In the case of GAGACCGCAACTGAAAAGTTGTGGTAGCTATAGTGAGTCGCTGCCTGCAAAGACACAACT [TAGCT], the ligation selection enrichment is reported as 0.547 ± 0.17.
GAGACCGCAACTGAAAAGTTGTGGCAGCTATAGTGAGTCGCTGCCTGCAAAGACACAACT [CAGCT] was tested, and the ligation selection enrichment was 0.542 ± 0.24.
Work on GAGACCGCAACTGAAAAGTTGTGGTAGGAATAGTGAGTCGCTGCCTGCAAAGACACAACT [TAGGA] yielded a ligation selection enrichment of 0.998 ± 0.19.
GAGACCGCAACTGAAAAGTTGTGGGAGGAATAGTGAGTCGCTGCCTGCAAAGACACAACT [GAGGA] was tested, and the ligation selection enrichment was 0.501 ± 0.11.
For GAGACCGCAACTGAAAAGTTGTGGAAGGAATAGTGAGTCGCTGCCTGCAAAGACACAACT [AAGGA], the ligation selection enrichment was 0.431 ± 0.013.
For GAGACCGCAACTGAAAAGTTGTGGCAGGAATAGTGAGTCGCTGCCTGCAAAGACACAACT [CAGGA], the ligation selection enrichment was 0.231 ± 0.013.
For GAGACCGCAACTGAAAAGTTGTGGCAGGCATAGTGAGTCGCTGCCTGCAAAGACACAACT [CAGGC], the ligation selection enrichment was 0.244 ± 0.12.
GAGACCGCAACTGAAAAGTTGTGGTAGGCATAGTGAGTCGCTGCCTGCAAAGACACAACT [TAGGC] was tested, and the ligation selection enrichment was 0.218 ± 0.0035.
GAGACCGCAACTGAAAAGTTGTGGGAGGCATAGTGAGTCGCTGCCTGCAAAGACACAACT [GAGGC] was tested, and the ligation selection enrichment was 0.17 ± 0.017.
With GAGACCGCAACTGAAAAGTTGTGGAAGGCATAGTGAGTCGCTGCCTGCAAAGACACAACT [AAGGC] the ligation selection enrichment was 0.146 ± 0.015.
GAGACCGCAACTGAAAAGTTGTGGTAGGGATAGTGAGTCGCTGCCTGCAAAGACACAACT [TAGGG] gave a ligation selection enrichment of 0.637 ± 0.12.
For GAGACCGCAACTGAAAAGTTGTGGGAGGGATAGTGAGTCGCTGCCTGCAAAGACACAACT [GAGGG], the ligation selection enrichment was 0.345 ± 0.011.
In the case of GAGACCGCAACTGAAAAGTTGTGGAAGGGATAGTGAGTCGCTGCCTGCAAAGACACAACT [AAGGG], the ligation selection enrichment is reported as 0.331 ± 0.0073.
With GAGACCGCAACTGAAAAGTTGTGGCAGGGATAGTGAGTCGCTGCCTGCAAAGACACAACT [CAGGG] the ligation selection enrichment was 0.186 ± 0.021.
Variant GAGACCGCAACTGAAAAGTTGTGGAAGGTATAGTGAGTCGCTGCCTGCAAAGACACAACT [AAGGT] has a ligation selection enrichment of 0.203 ± 0.15.
Work on GAGACCGCAACTGAAAAGTTGTGGGAGGTATAGTGAGTCGCTGCCTGCAAAGACACAACT [GAGGT] yielded a ligation selection enrichment of 0.143 ± 0.025.
For GAGACCGCAACTGAAAAGTTGTGGTAGGTATAGTGAGTCGCTGCCTGCAAAGACACAACT [TAGGT], the ligation selection enrichment was 0.115 ± 0.046.
With GAGACCGCAACTGAAAAGTTGTGGCAGGTATAGTGAGTCGCTGCCTGCAAAGACACAACT [CAGGT] the ligation selection enrichment was 0.108 ± 0.023.
GAGACCGCAACTGAAAAGTTGTGGGAGTAATAGTGAGTCGCTGCCTGCAAAGACACAACT [GAGTA] showed a ligation selection enrichment of 0.27 ± 0.053.
For GAGACCGCAACTGAAAAGTTGTGGAAGTAATAGTGAGTCGCTGCCTGCAAAGACACAACT [AAGTA], the ligation selection enrichment was 0.24 ± 0.059.
